Data reported in article doi:10.1101/716654 (bioRxiv, 2019).

Molecular target: the molecule itself
Assay: native gel or EMSA

B1: hNav1.7^GFP (human voltage-gated sodium channel Nav1.7 fused to C-terminal GFP) (natural protein)
chain: not shown
- stoichiometry N: 2
